Data reported in doi:10.1101/2021.07.30.454553 (bioRxiv, 2021).
Read-outs that look alike come from different tables or passages of the source. One block for each binder: values may come before it.

Legend:
[1] = target: T1, full-length human kinesin-1 heavy chain (KIF5B) (human, UniProt P33176 1-963, LD555, LD655 or Alexa488 label (imaging assays)); experiment: single-molecule colocalisation on microtubules
T1 sequence (looked up): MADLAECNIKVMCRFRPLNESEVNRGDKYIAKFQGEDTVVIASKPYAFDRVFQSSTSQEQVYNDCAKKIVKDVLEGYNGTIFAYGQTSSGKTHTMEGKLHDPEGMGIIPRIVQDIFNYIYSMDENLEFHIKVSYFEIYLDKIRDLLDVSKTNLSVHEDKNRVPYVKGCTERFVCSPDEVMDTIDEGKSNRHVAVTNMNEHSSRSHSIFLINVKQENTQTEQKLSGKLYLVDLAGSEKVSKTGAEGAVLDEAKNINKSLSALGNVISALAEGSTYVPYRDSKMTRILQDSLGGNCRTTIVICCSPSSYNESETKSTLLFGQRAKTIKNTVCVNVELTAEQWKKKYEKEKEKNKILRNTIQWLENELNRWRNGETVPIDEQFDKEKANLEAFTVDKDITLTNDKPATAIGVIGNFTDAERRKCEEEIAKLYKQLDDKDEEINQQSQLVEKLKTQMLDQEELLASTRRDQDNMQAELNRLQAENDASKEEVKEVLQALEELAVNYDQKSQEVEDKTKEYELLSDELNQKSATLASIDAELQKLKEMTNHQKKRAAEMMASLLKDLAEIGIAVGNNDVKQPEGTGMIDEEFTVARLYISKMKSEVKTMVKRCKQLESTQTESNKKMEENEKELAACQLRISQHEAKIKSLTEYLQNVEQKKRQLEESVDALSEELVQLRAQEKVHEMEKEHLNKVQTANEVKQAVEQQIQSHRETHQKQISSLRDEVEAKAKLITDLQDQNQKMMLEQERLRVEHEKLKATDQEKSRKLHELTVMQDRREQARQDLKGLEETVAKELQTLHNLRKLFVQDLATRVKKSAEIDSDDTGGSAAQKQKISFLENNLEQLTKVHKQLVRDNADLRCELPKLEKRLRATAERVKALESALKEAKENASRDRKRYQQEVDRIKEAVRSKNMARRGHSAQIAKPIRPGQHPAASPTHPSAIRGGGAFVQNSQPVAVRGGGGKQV

[2] = target: T1, full-length human kinesin-1 heavy chain …; experiment: single-molecule colocalisation on microtubules; remark: listed apart in the source
KIF5B^Δ1-336 = target: T2, KIF5B^Δ1-336 (human, UniProt P33176 337-963); experiment: single-molecule colocalisation on microtubules
T2 sequence (looked up): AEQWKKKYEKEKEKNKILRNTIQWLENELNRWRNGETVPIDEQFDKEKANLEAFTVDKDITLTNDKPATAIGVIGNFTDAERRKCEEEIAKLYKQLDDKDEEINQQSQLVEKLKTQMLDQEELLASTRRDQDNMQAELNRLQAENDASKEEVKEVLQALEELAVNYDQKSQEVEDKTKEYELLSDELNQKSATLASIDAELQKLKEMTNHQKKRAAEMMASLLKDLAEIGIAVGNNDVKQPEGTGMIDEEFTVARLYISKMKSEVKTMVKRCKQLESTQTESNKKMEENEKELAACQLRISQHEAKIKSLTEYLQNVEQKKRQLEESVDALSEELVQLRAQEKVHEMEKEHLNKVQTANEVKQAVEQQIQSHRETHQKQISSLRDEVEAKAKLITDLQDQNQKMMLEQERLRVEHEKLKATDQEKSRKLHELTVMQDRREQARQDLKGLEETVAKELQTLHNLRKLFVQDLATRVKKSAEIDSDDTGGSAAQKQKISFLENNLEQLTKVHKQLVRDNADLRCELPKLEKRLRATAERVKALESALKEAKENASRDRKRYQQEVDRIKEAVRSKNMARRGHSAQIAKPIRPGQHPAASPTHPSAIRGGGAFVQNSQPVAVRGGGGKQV

[3] = target: T1, full-length human kinesin-1 heavy chain …; experiment: cell-based or functional assay

B1: full-length TRAK1^1-953 (natural protein, human, UniProt Q9UPV9 1-953, looked up)
chain: MALVFQFGQPVRAQPLPGLCHGKLIRTNACDVCNSTDLPEVEIISLLEEQLPHYKLRADTIYGYDHDDWLHTPLISPDANIDLTTEQIEETLKYFLLCAERVGQMTKTYNDIDAVTRLLEEKERDLELAARIGQSLLKKNKTLTERNELLEEQVEHIREEVSQLRHELSMKDELLQFYTSAAEESEPESVCSTPLKRNESSSSVQNYFHLDSLQKKLKDLEEENVVLRSEASQLKTETITYEEKEQQLVNDCVKELRDANVQIASISEELAKKTEDAARQQEEITHLLSQIVDLQKKAKACAVENEELVQHLGAAKDAQRQLTAELRELEDKYAECMEMLHEAQEELKNLRNKTMPNTTSRRYHSLGLFPMDSLAAEIEGTMRKELQLEEAESPDITHQKRVFETVRNINQVVKQRSLTPSPMNIPGSNQSSAMNSLLSSCVSTPRSSFYGSDIGNVVLDNKTNSIILETEAADLGNDERSKKPGTPGTPGSHDLETALRRLSLRRENYLSERRFFEEEQERKLQELAEKGELRSGSLTPTESIMSLGTHSRFSEFTGFSGMSFSSRSYLPEKLQIVKPLEGSATLHHWQQLAQPHLGGILDPRPGVVTKGFRTLDVDLDEVYCLNDFEEDDTGDHISLPRLATSTPVQHPETSAHHPGKCMSQTNSTFTFTTCRILHPSDELTRVTPSLNSAPTPACGSTSHLKSTPVATPCTPRRLSLAESFTNTRESTTTMSTSLGLVWLLKERGISAAVYDPQSWDRAGRGSLLHSYTPKMAVIPSTPPNSPMQTPTSSPPSFEFKCTSPPYDNFLASKPASSILREVREKNVRSSESQTDVSVSNLNLVDKVRRFGVAKVVNSGRAHVPTLTEEQGPLLCGPPGPAPALVPRGLVPEGLPLRCPTVTSAIGGLQLNSGIRRNRSFPTMVGSSMQMKAPVTLTSGILMGAKLSKQTSLR
modifications: LD655 dye on the SNAP tag (imaging assays)
binding result [1]: binds

B3: TRAK1^1-360 (domain or fragment, human, UniProt Q9UPV9 1-360, looked up)
chain: MALVFQFGQPVRAQPLPGLCHGKLIRTNACDVCNSTDLPEVEIISLLEEQLPHYKLRADTIYGYDHDDWLHTPLISPDANIDLTTEQIEETLKYFLLCAERVGQMTKTYNDIDAVTRLLEEKERDLELAARIGQSLLKKNKTLTERNELLEEQVEHIREEVSQLRHELSMKDELLQFYTSAAEESEPESVCSTPLKRNESSSSVQNYFHLDSLQKKLKDLEEENVVLRSEASQLKTETITYEEKEQQLVNDCVKELRDANVQIASISEELAKKTEDAARQQEEITHLLSQIVDLQKKAKACAVENEELVQHLGAAKDAQRQLTAELRELEDKYAECMEMLHEAQEELKNLRNKTMPNTTS
modifications: LD555 or LD655 dye on the SNAP tag (imaging assays)
landing rate of kinesin on MTs with TRAK1 1-360 against kinesin alone [3]: 1.5 fold
landing rate of kinesin/TRAK1 1-360 complexes, increase by 50 nM MAP7 [3]: > 7 fold

B5: TRAK2^1-360 (domain or fragment, human, UniProt O60296 1-360, looked up)
chain: MSQSQNAIFTSPTGEENLMNSNHRDSESITDVCSNEDLPEVELVSLLEEQLPQYRLKVDTLFLYENQDWTQSPHQRQHASDALSPVLAEETFRYMILGTDRVEQMTKTYNDIDMVTHLLAERDRDLELAARIGQALLKRNHVLSEQNESLEEQLGQAFDQVNQLQHELCKKDELLRIVSIASEESETDSSCSTPLRFNESFSLSQGLLQLEMLQEKLKELEEENMALRSKACHIKTETVTYEEKEQQLVSDCVKELRETNAQMSRMTEELSGKSDELIRYQEELSSLLSQIVDLQHKLKEHVIEKEELKLHLQASKDAQRQLTMELHELQDRNMECLGMLHESQEEIKELRSRSGPTAHL
modifications: LD555 or LD655 dye on the SNAP tag (imaging assays)
landing rate of kinesin/TRAK2 1-360 complexes, increase by 50 nM MAP7 [3]: 2 fold

Further lines, results first:

binding result [2]: binds
binding result (KIF5B^Δ1-336): binds
B2: TRAK1^1-400 (domain or fragment, human, UniProt Q9UPV9 1-400, looked up)
chain: MALVFQFGQPVRAQPLPGLCHGKLIRTNACDVCNSTDLPEVEIISLLEEQLPHYKLRADTIYGYDHDDWLHTPLISPDANIDLTTEQIEETLKYFLLCAERVGQMTKTYNDIDAVTRLLEEKERDLELAARIGQSLLKKNKTLTERNELLEEQVEHIREEVSQLRHELSMKDELLQFYTSAAEESEPESVCSTPLKRNESSSSVQNYFHLDSLQKKLKDLEEENVVLRSEASQLKTETITYEEKEQQLVNDCVKELRDANVQIASISEELAKKTEDAARQQEEITHLLSQIVDLQKKAKACAVENEELVQHLGAAKDAQRQLTAELRELEDKYAECMEMLHEAQEELKNLRNKTMPNTTSRRYHSLGLFPMDSLAAEIEGTMRKELQLEEAESPDITHQK
modifications: LD555 or LD655 dye on the SNAP tag

binding result [1]: binds
B4: full-length TRAK2^1-914 (natural protein, human, UniProt O60296 1-914, looked up)
chain: MSQSQNAIFTSPTGEENLMNSNHRDSESITDVCSNEDLPEVELVSLLEEQLPQYRLKVDTLFLYENQDWTQSPHQRQHASDALSPVLAEETFRYMILGTDRVEQMTKTYNDIDMVTHLLAERDRDLELAARIGQALLKRNHVLSEQNESLEEQLGQAFDQVNQLQHELCKKDELLRIVSIASEESETDSSCSTPLRFNESFSLSQGLLQLEMLQEKLKELEEENMALRSKACHIKTETVTYEEKEQQLVSDCVKELRETNAQMSRMTEELSGKSDELIRYQEELSSLLSQIVDLQHKLKEHVIEKEELKLHLQASKDAQRQLTMELHELQDRNMECLGMLHESQEEIKELRSRSGPTAHLYFSQSYGAFTGESLAAEIEGTMRKKLSLDEESSLFKQKAQQKRVFDTVRIANDTRGRSISFPALLPIPGSNRSSVIMTAKPFESGLQQTEDKSLLNQGSSSEEVAGSSQKMGQPGPSGDSDLATALHRLSLRRQNYLSEKQFFAEEWQRKIQVLADQKEGVSGCVTPTESLASLCTTQSEITDLSSASCLRGFMPEKLQIVKPLEGSQTLYHWQQLAQPNLGTILDPRPGVITKGFTQLPGDAIYHISDLEEDEEEGITFQVQQPLEVEEKLSTSKPVTGIFLPPITSAGGPVTVATANPGKCLSCTNSTFTFTTCRILHPSDITQVTPSSGFPSLSCGSSGSSSSNTAVNSPALSYRLSIGESITNRRDSTTTFSSTMSLAKLLQERGISAKVYHSPISENPLQPLPKSLAIPSTPPNSPSHSPCPSPLPFEPRVHLSENFLASRPAETFLQEMYGLRPSRNPPDVGQLKMNLVDRLKRLGIARVVKNPGAQENGRCQEAEIGPQKPDSAVYLNSGSSLLGGLRRNQSLPVIMGSFAAPVCTSSPKMGVLKED
modifications: LD655 dye on the SNAP tag (imaging assays)

binding result [1]: binds
B6: TRAK2^1-400 (domain or fragment, human, UniProt O60296 1-400, looked up)
chain: MSQSQNAIFTSPTGEENLMNSNHRDSESITDVCSNEDLPEVELVSLLEEQLPQYRLKVDTLFLYENQDWTQSPHQRQHASDALSPVLAEETFRYMILGTDRVEQMTKTYNDIDMVTHLLAERDRDLELAARIGQALLKRNHVLSEQNESLEEQLGQAFDQVNQLQHELCKKDELLRIVSIASEESETDSSCSTPLRFNESFSLSQGLLQLEMLQEKLKELEEENMALRSKACHIKTETVTYEEKEQQLVSDCVKELRETNAQMSRMTEELSGKSDELIRYQEELSSLLSQIVDLQHKLKEHVIEKEELKLHLQASKDAQRQLTMELHELQDRNMECLGMLHESQEEIKELRSRSGPTAHLYFSQSYGAFTGESLAAEIEGTMRKKLSLDEESSLFKQKAQ
modifications: LD555 or LD655 dye on the SNAP tag
